Measurements from the supplement of paper PMC11780869.

Test system: Bacillus subtilis
Assay: cleaved RNA product abundance (RNA/gDNA barcode ratio) relative to median wild-type variant (ratio to wild type); higher = more accumulation of the downstream cleavage product
Settings: experiment (reporter, strain, medium): exp 8a: truncated aprE reporter, strain BJT201 with 2% xylose (RNase J1 expressed); cleavage site: glnRA (positions -5 to +31 mutated)
Summary of the method: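 In LB at 37°C, B. subtilis cultures went from OD600 0.0003 to 0.3. Their chromosomes held barcoded reporter mRNAs, truncated aprE or tetM, with RNase Y cleavage-site windows mutagenized via oligos at a 9% error rate. Cleaved RNA, chosen by gel, was reverse transcribed and barcode-sequenced alongside genomic DNA barcodes with UMI collapsing, giving a per-construct RNA:gDNA ratio scaled to the median construct with the unmutated site. This scaled ratio is termed cleaved product abundance.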

| Sequence | cleaved RNA product abundance |
| --- | --- |
| CGACATGTCCCGCTTCTTTCATTAATCCGTTAGCAAATGTTTTGCTATATACATTAACCTTTTAAGAGGAGGAAT | 1.13 |
| CGACATGTCCCGCTTCTTTCATTAATCCGTTAGCAAATGTTTTGCTATATACATTCACCTTTTAAGAGGAGGAAT | 1.09 |
| CGACATGTCCCGCTTCTTTCATTAATCCGTTAGCAAATGTTTTGCTATATACATTTAAATTTTAAGAGGAGGAAT | 0.806 |
| CGACATGTCCCGCTTCTTTCATTAATCCGTTAGCAAATGTTTTGCTATATACATTTAACTTTTAAGAGGAGGAAT | 1.03 |
| CGACATGTCCCGCTTCTTTCATTAATCCGTTAGCAAATGTTTTGCTATATACATTTACATTTTAAGAGGAGGAAT | 1.23 |
| CGACATGTCCCGCTTCTTTCATTAATCCGTTAGCAAATGTTTTGCTATATACATTTACCATTTAAGAGGAGGAAT | 1.4 |
| CGACATGTCCCGCTTCTTTCATTAATCCGTTAGCAAATGTTTTGCTATATACATTTACCCTTTAAGAGGAGGAAT | 0.852 |
| CGACATGTCCCGCTTCTTTCATTAATCCGTTAGCAAATGTTTTGCTATATACATTTACCTTTTAAGAGGAGGAAT | 1.17 |
| CGACATGTCCCGCTTCTTTCATTAATCCGTTAGCAAATGTTTTGCTATATACATTTACTTTTTAAGAGGAGGAAT | 1.2 |
| CGACATGTCCCGCTTCTTTCATTAATCCGTTAGCAAATGTTTTGCTATATACATTTTCCTTTTAAGAGGAGGAAT | 0.6 |
| CGACATGTCCCGCTTCTTTCATTAATCCGTTAGCAAATGTTTTGCTATATACTTTTACCTTTTAAGAGGAGGAAT | 1.13 |
| CGACATGTCCCGCTTCTTTCATTAATCCGTTAGCAAATGTTTTGCTTTATACATTTACCTTTTAAGAGGAGGAAT | 0.298 |
| CGACATGTCCCGCTTCTTTCATTAATCCGTTAGCAAATGTTTTGTTATATACATTTACCTTTTAAGAGGAGGAAT | 0.554 |
| CGACATGTCCCGCTTCTTTCATTAATCCGTTAGCAAATGTTTTTCTATATACATTTACCTTTTAAGAGGAGGAAT | 0.753 |
| CGACATGTCCCGCTTCTTTCATTAATCCGTTAGCAAATTTTTTGCTATATACATTTACCTTTTAAGAGGAGGAAT | 1.19 |
| CGACATGTCCCGCTTCTTTCATTAATCCGTTAGCAACAATTTTGCTATATACATTTACCTTTTAAGAGGAGGAAT | 1.04 |
| CGACATGTCCCGCTTCTTTCATTAATCCGTTAGCAACAGATTTGCTATATACATTTACCTTTTAAGAGGAGGAAT | 0.68 |
| CGACATGTCCCGCTTCTTTCATTAATCCGTTAGCAACAGGTTTGCTATATACATTTACCTTTTAAGAGGAGGAAT | 0.389 |
| CGACATGTCCCGCTTCTTTCATTAATCCGTTAGCAACAGTTTTACTATATACATTTACCTTTTAAGAGGAGGAAT | 0.561 |
| CGACATGTCCCGCTTCTTTCATTAATCCGTTAGCAACAGTTTTGATATATACATTTACCTTTTAAGAGGAGGAAT | 0.429 |
| CGACATGTCCCGCTTCTTTCATTAATCCGTTAGCAACAGTTTTGCTATACACATTTACCTTTTAAGAGGAGGAAT | 0.557 |
| CGACATGTCCCGCTTCTTTCATTAATCCGTTAGCAACAGTTTTGCTATATAAATTTACCTTTTAAGAGGAGGAAT | 0.69 |
| CGACATGTCCCGCTTCTTTCATTAATCCGTTAGCAACAGTTTTGCTATATACAATTACCTTTTAAGAGGAGGAAT | 0.601 |
| CGACATGTCCCGCTTCTTTCATTAATCCGTTAGCAACAGTTTTGCTATATACATATACCTTTTAAGAGGAGGAAT | 1.16 |
| CGACATGTCCCGCTTCTTTCATTAATCCGTTAGCAACAGTTTTGCTATATACATTTAACTTTTAAGAGGAGGAAT | 0.916 |
| CGACATGTCCCGCTTCTTTCATTAATCCGTTAGCAACAGTTTTGCTATATACATTTACCATTTAAGAGGAGGAAT | 0.522 |
| CGACATGTCCCGCTTCTTTCATTAATCCGTTAGCAACAGTTTTGCTATATACATTTACCTTTTAAGAGGAGGAAT | 0.814 |
